Normalised SPOT signal, Boehringer light units (BLU); mean over the file's lines of this peptide data for 28 molecules are collected here from article PMC314469, “Protein Interaction Networks by Proteome Peptide Scanning” (PLoS Biology, 2004).

To fix the notation:
T1: amphyphisin SH3 (AMPH_HUMAN), P49418
T1 chain: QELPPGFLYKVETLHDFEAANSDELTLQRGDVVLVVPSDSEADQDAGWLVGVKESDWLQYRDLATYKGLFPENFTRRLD

One experiment concerns the target T1, amphyphisin SH3 (AMPH_HUMAN), P49418. The experiment can be described thus: SPOT array.
As to RDLIFKRPSRQFQY [Q92797 568-581], the normalised SPOT signal, Boehringer light units (BLU); mean over the file's lines of this peptide stood at 5070.

Consider RSVRPSRPPRGFQP [O43184 749-763], for which the normalised SPOT signal, Boehringer light units (BLU); mean over the file's lines of this peptide came to 12400.

In turn, RDAFLKRPISNKYM [Q9H278 225-238] had a normalised SPOT signal, Boehringer light units (BLU); mean over the file's lines of this peptide of 34.7.

Turning to RAPSPARPRRPHAS [Q9H8S7 104-117], the normalised SPOT signal, Boehringer light units (BLU); mean over the file's lines of this peptide is 6640.

In turn, REASFKRPVVILGP [O95049 627-640] yielded a normalised SPOT signal, Boehringer light units (BLU); mean over the file's lines of this peptide of 47.4.

As to RDFIISRPTKLKSL [Q9Y6K5 932-945], the normalised SPOT signal, Boehringer light units (BLU); mean over the file's lines of this peptide amounted to 108.

AASSPARPPGLQRS [Q9BQ89 173-187] showed a normalised SPOT signal, Boehringer light units (BLU); mean over the file's lines of this peptide of 136.

RSSFPVRPPTASTI [Q9NPY2 259-273]: the normalised SPOT signal, Boehringer light units (BLU); mean over the file's lines of this peptide was 167.

The molecule RADIPKRPSYVAPL [Q9Y2F3 1400-1413] displayed a normalised SPOT signal, Boehringer light units (BLU); mean over the file's lines of this peptide of 47.6.

In the case of RAASLRRPRRAASR [Q8WYB4 11-24], the normalised SPOT signal, Boehringer light units (BLU); mean over the file's lines of this peptide turned out to be 80.1.

For REAGFKRPVVLFGP [Q9UDY2 725-738], the normalised SPOT signal, Boehringer light units (BLU); mean over the file's lines of this peptide turned out to be 24.6.

For the molecule ATFSLRRPWTEAGA [P20800 107-120], the normalised SPOT signal, Boehringer light units (BLU); mean over the file's lines of this peptide came out at 20.7.

For the molecule RAPRPTRPDKARRL [P39030 37-50], the normalised SPOT signal, Boehringer light units (BLU); mean over the file's lines of this peptide is 219.

Regarding RSWVLRRPMLAAAG [P36776 15-28], the normalised SPOT signal, Boehringer light units (BLU); mean over the file's lines of this peptide came to 19.

In turn, RASSPKRPGPWSEP [P08922 650-663] came in with a normalised SPOT signal, Boehringer light units (BLU); mean over the file's lines of this peptide of 48.7.

Turning to QYRSLPRPAKSSSM [Q9H9S9 177-190], the normalised SPOT signal, Boehringer light units (BLU); mean over the file's lines of this peptide came to 220.

In turn, REKKPPRPPKKKYQ [Q9NR48 1976-1990] came in with a normalised SPOT signal, Boehringer light units (BLU); mean over the file's lines of this peptide of 56.2.

With RAVDLRRPLLHELL [Q9NXT9 123-136], the normalised SPOT signal, Boehringer light units (BLU); mean over the file's lines of this peptide amounted to 114.

Molecule REAALERPRRTKRE [Q96LA8 29-42] gave a normalised SPOT signal, Boehringer light units (BLU); mean over the file's lines of this peptide of 2500.

In the case of RAWIPGKPPSPPRG [Q14069 9-23], the normalised SPOT signal, Boehringer light units (BLU); mean over the file's lines of this peptide turned out to be 1950.

On to ATGTLKRPTSLSRH [Q92619 87-100], for which the normalised SPOT signal, Boehringer light units (BLU); mean over the file's lines of this peptide was determined as 32.9.

In turn, RAITFRRPSRVHYY [Q96RS3 192-205] had a normalised SPOT signal, Boehringer light units (BLU); mean over the file's lines of this peptide of 708.

QYNFLRRPQRMPVS [Q9BZC7 2011-2024] registered a normalised SPOT signal, Boehringer light units (BLU); mean over the file's lines of this peptide of 1220.

QYGFPRRPPPRGSQ [Q9BQH3 166-180]: the normalised SPOT signal, Boehringer light units (BLU); mean over the file's lines of this peptide worked out at 3010.

For the molecule RAPPPSRPPPRPSV [Q9H6X2 550-564], the normalised SPOT signal, Boehringer light units (BLU); mean over the file's lines of this peptide stood at 4340.

REDRFRRPRDEGGW [Q14152 1235-1248] registered a normalised SPOT signal, Boehringer light units (BLU); mean over the file's lines of this peptide of 46.

The molecule RAEVPTKPPLPPAR [Q9UKM7 224-238] displayed a normalised SPOT signal, Boehringer light units (BLU); mean over the file's lines of this peptide of 8090.

The molecule RAQRIRRPFRPILN [Q9NR60 64-77] returned a normalised SPOT signal, Boehringer light units (BLU); mean over the file's lines of this peptide of 180.

The next experiment concerns the target endophilin SH3 (SH3G2_HUMAN), Q99962. Kind of experiment: SPOT array.
Molecule RDLIFKRPSRQFQY [Q92797 568-581] came in with a normalised SPOT signal, Boehringer light units (BLU); mean over the file's lines of this peptide of 190.

For RSVRPSRPPRGFQP [O43184 749-763], the normalised SPOT signal, Boehringer light units (BLU); mean over the file's lines of this peptide is 13300.

As for RDAFLKRPISNKYM [Q9H278 225-238], the normalised SPOT signal, Boehringer light units (BLU); mean over the file's lines of this peptide came to 254.

The molecule RAPSPARPRRPHAS [Q9H8S7 104-117] yielded a normalised SPOT signal, Boehringer light units (BLU); mean over the file's lines of this peptide of 2140.

REASFKRPVVILGP [O95049 627-640] displayed a normalised SPOT signal, Boehringer light units (BLU); mean over the file's lines of this peptide of 18.3.

RDFIISRPTKLKSL [Q9Y6K5 932-945] yielded a normalised SPOT signal, Boehringer light units (BLU); mean over the file's lines of this peptide of 182.

Turning to AASSPARPPGLQRS [Q9BQ89 173-187], the normalised SPOT signal, Boehringer light units (BLU); mean over the file's lines of this peptide was 3950.

On to RSSFPVRPPTASTI [Q9NPY2 259-273], for which the normalised SPOT signal, Boehringer light units (BLU); mean over the file's lines of this peptide was determined as 3140.

Regarding RADIPKRPSYVAPL [Q9Y2F3 1400-1413], the normalised SPOT signal, Boehringer light units (BLU); mean over the file's lines of this peptide is 1460.

Turning to RAASLRRPRRAASR [Q8WYB4 11-24], the normalised SPOT signal, Boehringer light units (BLU); mean over the file's lines of this peptide is 72.5.

REAGFKRPVVLFGP [Q9UDY2 725-738] gave a normalised SPOT signal, Boehringer light units (BLU); mean over the file's lines of this peptide of 23.8.

ATFSLRRPWTEAGA [P20800 107-120] returned a normalised SPOT signal, Boehringer light units (BLU); mean over the file's lines of this peptide of 61.3.

Molecule RAPRPTRPDKARRL [P39030 37-50] gave a normalised SPOT signal, Boehringer light units (BLU); mean over the file's lines of this peptide of 2140.

For RSWVLRRPMLAAAG [P36776 15-28], the normalised SPOT signal, Boehringer light units (BLU); mean over the file's lines of this peptide is 412.

For RASSPKRPGPWSEP [P08922 650-663], the normalised SPOT signal, Boehringer light units (BLU); mean over the file's lines of this peptide stood at 66.3.

In turn, QYRSLPRPAKSSSM [Q9H9S9 177-190] had a normalised SPOT signal, Boehringer light units (BLU); mean over the file's lines of this peptide of 764.

Consider REKKPPRPPKKKYQ [Q9NR48 1976-1990], for which the normalised SPOT signal, Boehringer light units (BLU); mean over the file's lines of this peptide is 6480.

In turn, RAVDLRRPLLHELL [Q9NXT9 123-136] displayed a normalised SPOT signal, Boehringer light units (BLU); mean over the file's lines of this peptide of 67.7.

REAALERPRRTKRE [Q96LA8 29-42] gave a normalised SPOT signal, Boehringer light units (BLU); mean over the file's lines of this peptide of 330.

Molecule RAWIPGKPPSPPRG [Q14069 9-23] showed a normalised SPOT signal, Boehringer light units (BLU); mean over the file's lines of this peptide of 4770.

Molecule ATGTLKRPTSLSRH [Q92619 87-100] returned a normalised SPOT signal, Boehringer light units (BLU); mean over the file's lines of this peptide of 23.6.

In turn, RAITFRRPSRVHYY [Q96RS3 192-205] registered a normalised SPOT signal, Boehringer light units (BLU); mean over the file's lines of this peptide of 33.9.

As to QYNFLRRPQRMPVS [Q9BZC7 2011-2024], the normalised SPOT signal, Boehringer light units (BLU); mean over the file's lines of this peptide is 764.

QYGFPRRPPPRGSQ [Q9BQH3 166-180] had a normalised SPOT signal, Boehringer light units (BLU); mean over the file's lines of this peptide of 2120.

Regarding RAPPPSRPPPRPSV [Q9H6X2 550-564], the normalised SPOT signal, Boehringer light units (BLU); mean over the file's lines of this peptide was 11000.

Consider REDRFRRPRDEGGW [Q14152 1235-1248], for which the normalised SPOT signal, Boehringer light units (BLU); mean over the file's lines of this peptide stood at 116.

In turn, RAEVPTKPPLPPAR [Q9UKM7 224-238] registered a normalised SPOT signal, Boehringer light units (BLU); mean over the file's lines of this peptide of 2440.

As for RAQRIRRPFRPILN [Q9NR60 64-77], the normalised SPOT signal, Boehringer light units (BLU); mean over the file's lines of this peptide is 80.9.
